Experimental data taken from IntAct's records for PubMed 22291008.

B1: CMRF35-like molecule 5 (Homo sapiens), Q6UXZ3 (parent)
chain: MWLSPSLLLLILPGYSIAAKITGPTTVNGSEQGSLTVQCAYGSGWETYLKWRCQGADWNYCNILVKTNGSEQEVKKNRVSIRDNQKNHVFTVTMENLKRDDADSYWCGTERPGIDLGVKVQVTINPGTQTAVSEWTTTTASLAFTAAATQKTSSPLTRSPLKSTHFLFLFLLELPLLLSMLGTVLWVNRPQRRS
B2: High affinity immunoglobulin epsilon receptor subunit gamma (Homo sapiens), P30273 (parent)
chain: MIPAVVLLLLLLVEQAAALGEPQLCYILDAILFLYGIVLTLLYCRLKIQVRKAAITSYEKSDGVYTGLSTRNQETYETLKHEKPPQ
partner: B1 chain

Variants of: B1
Settings: with fcerg_human FCER1G, P30273

effect of a mutation on the interaction	Variant
with no effect	MWLSPSLLLLILPGYSIAAKITGPTTVNGSEQGSLTVQCAYGSGWETYLKWRCQGADWNYCNILVKTNGSEQEVKKNRVSIRDNQKNHVFTVTMENLKRDDADSYWCGTERPGIDLGVKVQVTINPGTQTAVSEWTTTTASLAFTAAATQKTSSPLTRSPLKSTHFLFLFLLALPLLLSMLGTVLWVNRPQRRS [E173A]

Variants of: B2
Settings: with clm5_human CD300LD, Q6UXZ3

effect of a mutation on the interaction	Variant
decreasing interaction strength	MIPAVVLLLLLLVEQAAALGEPQLCYILAAILFLYGIVLTLLYCRLKIQVRKAAITSYEKSDGVYTGLSTRNQETYETLKHEKPPQ [D29A]
